Results as given in article doi:10.1101/2020.10.06.326603 (bioRxiv, 2020).
Where two headings read alike, the source gives them in different places.

B1: IscS S10Q, H247P, Q248L variant (enzyme, E. coli)
chain: MKLPIYLDYQATTPVDPRVAEKMMQFMTMDGTFGNPASRSHRFGWQAEEAVDIARNQIADLVGADPREIVFTSGATESDNLAIKGAANFYQKKGKHIITSKTEHKAVLDTCRQLEREGFEVTYLAPQRNGIIDLKELEAAMRDDTILVSIMHVNNEIGVVQDIAAIGEMCRARGIIYHVDATQSVGKLPIDLSQLKVDLMSFSGHKIYGPKGIGALYVRRKPRVRIEAQMHGGGHERGMRSGTLPVPLIVGMGEAYRIAKEEMATEMERLRGLRNRLWNGIKDIEEVYLNGDLEHGAPNILNVSFNYVEGESLIMALKDLAVSSGSACTSASLEPSYVLRALGLNDELAHSSIRFSLGRFTTEEEIDYTIELVRKSIGRLRDLSPLWEMYKQGVDLNSIEWAHH

Assays:
SEC [1] = target: the molecule itself; experiment: SEC
[2] = target: the molecule itself; experiment: cell-based or functional assay
[3] = target: the molecule itself
SEC [4] = target: the molecule itself; experiment: SEC; remark: listed apart in the source
IscS^QPL-IscU complex = IscS^QPL-IscU complex (E. coli, UniProt P0A6B7 1-404; P0ACD4 1-128, S10Q | H247P | Q248L); experiment: native MS
[5] = target: B1; experiment: native MS

| binding result (IscS^QPL-IscU complex) | binding result [5] | Binder | stoichiometry N (SEC [1]) | cysteine desulfurase activity under standard conditions (kcat) [2] [min⁻¹] | Kd [3] [µM] | stoichiometry N (SEC [4]) |
| --- | --- | --- | --- | --- | --- | --- |
| – | – | IscS S10H, H247P, Q248L variant (enzyme, E. coli) MKLPIYLDYHATTPVDPRVAEKMMQFMTMDGTFGNPASRSHRFGWQAEEAVDIARNQIADLVGADPREIVFTSGATESDNLAIKGAANFYQKKGKHIITSKTEHKAVLDTCRQLEREGFEVTYLAPQRNGIIDLKELEAAMRDDTILVSIMHVNNEIGVVQDIAAIGEMCRARGIIYHVDATQSVGKLPIDLSQLKVDLMSFSGHKIYGPKGIGALYVRRKPRVRIEAQMHGGGHERGMRSGTLPVPLIVGMGEAYRIAKEEMATEMERLRGLRNRLWNGIKDIEEVYLNGDLEHGAPNILNVSFNYVEGESLIMALKDLAVSSGSACTSASLEPSYVLRALGLNDELAHSSIRFSLGRFTTEEEIDYTIELVRKSIGRLRDLSPLWEMYKQGVDLNSIEWAHH | 2 | 1.5 | 8 | – |
| – | – | IscS S10N, H247P, Q248L variant (enzyme, E. coli) MKLPIYLDYNATTPVDPRVAEKMMQFMTMDGTFGNPASRSHRFGWQAEEAVDIARNQIADLVGADPREIVFTSGATESDNLAIKGAANFYQKKGKHIITSKTEHKAVLDTCRQLEREGFEVTYLAPQRNGIIDLKELEAAMRDDTILVSIMHVNNEIGVVQDIAAIGEMCRARGIIYHVDATQSVGKLPIDLSQLKVDLMSFSGHKIYGPKGIGALYVRRKPRVRIEAQMHGGGHERGMRSGTLPVPLIVGMGEAYRIAKEEMATEMERLRGLRNRLWNGIKDIEEVYLNGDLEHGAPNILNVSFNYVEGESLIMALKDLAVSSGSACTSASLEPSYVLRALGLNDELAHSSIRFSLGRFTTEEEIDYTIELVRKSIGRLRDLSPLWEMYKQGVDLNSIEWAHH | 2 | 8.9 | 0.8 | – |
| – | – | B1 | – | 0.22 | 32 | 2 |
| binds | binds | CyaY (E. coli homolog of frataxin) (natural protein, UniProt P27838 1-106, looked up) MNDSEFHRLADQLWLTIEERLDDWDGDSDIDCEINGGVLTITFENGSKIIINRQEPLHQVWLATKQGGYHFDLKGDEWICDRSGETFWDLLEQAATQQAGETVSFR | – | – | – | – |
